The source of these data is the nanobody polyreactivity screen of Harvey et al. (2022).

The series in a line: yeast display, Sf9 membrane polyspecificity reagent, FACS + sequencing; frameworks hold sequencing errors. In short, it runs like this: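 Synthetic nanobody libraries on Saccharomyces cerevisiae BJ5465 were galactose-induced for 36–48 hours, stained 1 hour at 4 °C with 10% biotinylated, detergent-solubilized Sf9 membrane reagent and enriched on streptavidin microbeads. FACS then separated cells into low and high (top ~1%) gates by anti-HA (expression) and streptavidin (reagent binding) fluorescence. Genes were colony-PCR amplified, MiSeq 2 × 250 sequenced and CDR-length filtered. A clone's polyreactivity label is that of its gate of origin.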
With “QVQLVESGGGLVQAGGSLRLSCAASGLIFGTNAMGWYRQAPGKERELVAAISGSGGRTYYADSVKGRFTISRDNAKNTVYLQMNSLKPEDTAVYYCAADYVYGTRDDYWGQGTQVTVSS”, the “polyreactivity (PSR sort gate)” value is “high polyreactivity”. In the case of “QVQLVESGGGLVQAGGSLRLSCAASGLIFGWYAMGWSRQAPGKEREFVASIRYGGGSTYYADSVKGRFTISRDYAKNTVYLQMNSLKPEDTAVYYCAADRYPWHLQYVEYDSDYWGQGTQVTVSS”, the “polyreactivity (PSR sort gate)” value is “low polyreactivity”.

For “QVQLVESGGGLVQAGGSLRLSCAASGLIFGYNAMGWYRQAPGKESELVAAISSSGGSTSYADSVKGRFTISRDNAKNTVYLQMNSLKPEDTAVYYCAAKPGRYADYDYNSWGQGTQVTVSS”, the “polyreactivity (PSR sort gate)” value is on record as “low polyreactivity”.

Consider “QVQLVESGGGLVQAGGSLRLSCAASGLIFGYYAMGWYRQAPGKERELVARITRRGGSTYYADSVKGRFTISRDNAKNTVYLQMNSLKPEDTAVYDCAADWYSPRISREYDYWGQGTQVTVSS”, for which the “polyreactivity (PSR sort gate)” value is “high polyreactivity”. In the case of “QVQLVESGGGLVQAGGSLRLSCAASGLIFIVNAMGWYRQAPGKDRELVAAISSGGSTNYADSVKGRFTISRDNAKNTVYLQMNSLKPEDTAVYYCNAGRGPITQNVGSLAYRSDYWGQGTQVTVSS”, the “polyreactivity (PSR sort gate)” value is “low polyreactivity”. Consider “QVQLVESGGGLVQAGGSLRLSCAASGLIFKFYAMGGYRQAAGKERELVARISSSGGSTYYADSVKGRFTISRDNAKNTVYLQMNSLKPEDTAVYYCAAGAYYVERYARSSIFSYYYWGQGTQVTVSS”, for which the “polyreactivity (PSR sort gate)” value is “high polyreactivity”.

For “QVQLVESGGGLVQAGGSLRLSCAASGLIFKNNAMGWYRQAPGKERELVAAIDSIGGSTYYADSVKGRFTISRDNAKNTVYLQMNSLKPEDTAVYYCATDYYFYPHSQYDYWGQGTQVTVSS”, the “polyreactivity (PSR sort gate)” value is listed as “low polyreactivity”. “QVQLVESGGGLVQAGGSLRLSCAASGLIFKSNAMGWYRQAPGKERELVAAITRTGGSTYYADSVKGRFTISRDNAKNTVYLQMNSLKPEDTAVYYCAKVVGRWRSSWELDYWGQGTQVTVSS”: the “polyreactivity (PSR sort gate)” value was “high polyreactivity”.

In the case of “QVQLVESGGGLVQAGGSLRLSCAASGLIFKSYVMGWYRQSPGKERELVAGITGSGGTTYYADSVKGRFTISRDNAKNTVYLQMNSLKPEDTAVYYCAAVFETGAGGFYYTLQYDSWGQGTQVTVSS”, the “polyreactivity (PSR sort gate)” value is “high polyreactivity”. On to “QVQLVESGGGLVQAGGSLRLSCAASGLIFKYYALGWYRQAPGKERELVAAMSWSGGSTYYADSVKGRFTISRDTAKNTVYLQMNSLKPEDTAVYYCAADSWIYSYSALSIYDYWGQGTQVTVSS”, for which the “polyreactivity (PSR sort gate)” value is “high polyreactivity”. Turning to “QVQLVESGGGLVQAGGSLRLSCAASGLIFLDYAMGWYRQAPGKERELVAAISSSGGRTYYADSVKGRFTISRDNAKNTVYLQMNSLKPEDTAVYYCATGPNSYDYWGQGTQVTVSS”, the “polyreactivity (PSR sort gate)” value is on record as “high polyreactivity”. “QVQLVESGGGLVQAGGSLRLSCAASGLIFLHNAMGWYRQAPGKERELVAAIRDGDSTNYADSVKGRFTISRDNAKNTVYLQMNSLKPEDTAVYYCAKDPTLVAYAPGRYDYWGQGTQVTVSS”: the “polyreactivity (PSR sort gate)” value was “low polyreactivity”. Under “QVQLVESGGGLVQAGGSLRLSCAASGLIFLRNSMGLDRTAPGKERELVAAISRSGGSTYYADSVKGRFTISRDSAKYSGYLQMNSLKPVDTAVYYCAKYGYGGVIPGPDHFDYWVQGTQVTVSS” stands “high polyreactivity”; under “QVQLVESGGGLVQAGGSLRLSCAASGLIFLSYGMGWYRQAPGKERELVAAISSGGSTYYADSVKGRFTISRDNAKNTVYLQMNSLKPEDTAVYYCAAEQPIEFDHWGQGTQVTVSS”, “low polyreactivity”.

As to “QVQLVESGGGLVQAGGSLRLSCAASGLIFLYNAMGWYRQAPGKERELVAAISSGGGRTYYADSVKGRFTISRDNAKNTVYLQMNSLKPEDTAVYYCNVASYAKKRWTMDYWGQGTQVTVSS”, the “polyreactivity (PSR sort gate)” value is reported as “high polyreactivity”. In the case of “QVQLVESGGGLVQAGGSLRLSCAASGLIFLYYVMAWYRQAPGKERELVAGISRSGGRTNYADSVKGRFTISRDNAKNTVYLQMNSLKPEDTAVYYCAALLSIGQPKPTWYYYWGQGTQVTVSS”, the “polyreactivity (PSR sort gate)” value is on record as “high polyreactivity”. On to “QVQLVESGGGLVQAGGSLRLSCAASGLIFNKYAMGWYRQAPGKERELVATIRRDGSTNYADSVKGRFTISRDNAKITVYLQLNILKPEDTAVYYCAADSYYTRDDYWGQGTQVTVSS”, for which the “polyreactivity (PSR sort gate)” value was “high polyreactivity”. For “QVQLVESGGGLVQAGGSLRLSCAASGLIFNTYAMGWYRQARGKERELVAAITDGGGTNYADSVKGRFTISRDNAKNTVYLQMNSLKPEDTAVYYCAARLASWPLTYDFQWYEYWGQGTQVTVSS”, the “polyreactivity (PSR sort gate)” value is given as “low polyreactivity”. With “QVQLVESGGGLVQAGGSLRLSCAASGLIFPGYAMGWYRQAPGKERELVAAIDWSGGSTYYADSVKGRFTISRDYAKNTVYLQMNSLKPEDTAVYDCNADGYLSYAFDYWGQGTQVTVSS” the entry was “low polyreactivity”; with “QVQLVESGGGLVQAGGSLRLSCAASGLIFPRYAMGWYRQAPGKETELVAAISRSGGNTYYADSVKGRFTISRDNAKNTVYLQINRLKPEDTAVYYCAAYLKVRSPRDGYDYWGQGTQVSVSS”, “high polyreactivity”; with “QVQLVESGGGLVQAGGSLRLSCAASGLIFPSYAMGWYRQAPGKERELVAGINSGGSTNYADSVKGRFTISRDNAKNTVYLQMNSLKPEDTAVYYCAKDNNYYWYVSPRDYWGQGTQVTVSS”, “low polyreactivity”. As for “QVQLVESGGGLVQAGGSLRLSCAASGLIFPSYTMGSYRQAPGKERELVAAITFSGDSTNYADSVKGRFTISRDNAKNTVYLQMNSLKPEDTAVYYCAAETITYGFDGDYWGQGTQVTVSS”, the “polyreactivity (PSR sort gate)” value is given as “low polyreactivity”.

Turning to “QVQLVESGGGLVQAGGSLRLSCAASGLIFQYYAMGWYRPAPGKERELVAAISSDGNTYYADSVKGRFTISRDNAKNTVYLQMNSLKPEDTAVYYCAADWYIAYSEYGYWGQGTKVTVSS”, the “polyreactivity (PSR sort gate)” value is recorded as “low polyreactivity”.

As to “QVQLVESGGGLVQAGGSLRLSCAASGLIFQYYAMGWYRQAPGKERELVAGITSGANTNYADSVKGRFTISRDNAKNTVYLQMNSLKPEDTAVYYCATYVSSPYSDIWFKDFDYWGQGTQVTVSS”, the “polyreactivity (PSR sort gate)” value is listed as “low polyreactivity”. As for “QVQLVESGGGLVQAGGSLRLSCAASGLIFRFNAMGWYRQAPGKERELVAAITRAGSTYYADSVKGRFTISRDNAKNTVYLQMNSLKPEDTAVYYCAAGQYRLPQRGYGYWGQGTQVTVSS”, the “polyreactivity (PSR sort gate)” value is given as “high polyreactivity”. Take “QVQLVESGGGLVQAGGSLRLSCAASGLIFRGYAMGWYRQAPGKERELVAAISGSGVTTYYADSVKGRFTISRDYAKNSVYLQMNCLKPEDTAVYYCAASTRYEGNYWGQGTQVTVSS”: the “polyreactivity (PSR sort gate)” value is “high polyreactivity”. Under “QVQLVESGGGLVQAGGSLRLSCAASGLIFRHYVMGWYRQAPGKERELVAAITSRGGTTYYADSVKGRFTISRDNAKNTVYLQMNSLKPEDTAVYYCNVVQNSRHGYTSYYWGQGTQVTVSS” stands “high polyreactivity”; under “QVQLVESGGGLVQAGGSLRLSCAASGLIFRPYAMGWYRQAPGQERELVAAITSGGSTDYADSVKGRFTISRDNAKNTVYLQMNSLKPEDTAVYYCNADIYPPDGYPWQGDYDYWGQGTQVTVSS”, “low polyreactivity”. In the case of “QVQLVESGGGLVQAGGSLRLSCAASGLIFRPYTMGWYRQAPGKERELVATISGSGASTNYADSVNGRFTISRDNAKNTVYLQMNSLKPEDTAVYYCKGRCYSRMYYWGQGTQVTVSS”, the “polyreactivity (PSR sort gate)” value is “high polyreactivity”. “QVQLVESGGGLVQAGGSLRLSCAASGLIFRRNAMGWYRQAPGKERELVAAISWSGGSTYYADSVKGRFTISRDNAKNTVYLQMNSLKPEDTAVYYCNRGGFSRYYYWGHGTQVTVSS”: the “polyreactivity (PSR sort gate)” value is given as “low polyreactivity”.

In the case of “QVQLVESGGGLVQAGGSLRLSCAASGLIFRRYAMGWYRQAPGKERELVAVISSGGRTYYADSVKGRFTISRDNAKNTVFLQMNSLKPEDTAVYYCAARTRSYWGTYGSYHYDYWGQGTQVTVSS”, the “polyreactivity (PSR sort gate)” value was “high polyreactivity”. For the sequence “QVQLVESGGGLVQAGGSLRLSCAASGLIFRRYVMGWYRQAPGKERELVAAITSRGTRTYYADSVKGRFTISRDNAKNTVYLQMNSLKPEDTAVYYCNAQIYTYRTGRGYSRMDYWGQGTQVTVSS”, the “polyreactivity (PSR sort gate)” value is listed as “high polyreactivity”. For “QVQLVESGGGLVQAGGSLRLSCAASGLIFRSNAMGWYRQAPGKERELVAAISGSGGRTYYADSVKGRFTISRDNANNTVYLQMNSLKPEDTAVYYCAGRWSYRQNGYWGQGTQVTVSS”, the “polyreactivity (PSR sort gate)” value was “high polyreactivity”. As to “QVQLVESGGGLVQAGGSLRLSCAASGLIFRYSGMGWYRQATGKERELVAAIRWSAGSTYYADSVKGRFTISRDNAKNTVYLQMNSLKPEDTAVYYCAARAPVAGYKYRYDYWGQGTQVTVSS”, the “polyreactivity (PSR sort gate)” value is “high polyreactivity”. Take “QVQLVESGGGLVQAGGSLRLSCAASGLIFRYYAMGWYRQAPGKERELVAAISLRGGSTYYADSVKGRFTISRDNAKNTVYLQMNSLKPEDTAVYYCAAQWAAFSVANQYGYWGQGTQVTVSS”: the “polyreactivity (PSR sort gate)” value is reported as “high polyreactivity”. With “QVQLVESGGGLVQAGGSLRLSCAASGLIFRYYAMGWYSKAPGKERELVAVINYSGGRTYYADSVKGRFTISRDNAKNTVYLQMNSLKPEDTAVYYCAASFASKYEYWGQGTQVTVSS” the entry was “high polyreactivity”. With “QVQLVESGGGLVQAGGSLRLSCAASGLIFRYYAMGWYSQAPGKEREFVAAISGPGASTYYADSVKGRFTISRDNAKNTVYLQMNSLKPEDTAVYYCNTLLTYGYDYWGQGTQVTVSS” the entry was “high polyreactivity”.

With “QVQLVESGGGLVQAGGSLRLSCAASGLIFSGYAMGWYRQAPGKERELVAAISTRGGSTFYADSVKGRFTISRDNAKNTVYLQMNSLKPEDTAVYYCAADGAGGYYYWGQGTQVTVSS”, the “polyreactivity (PSR sort gate)” value is given as “high polyreactivity”.

Consider “QVQLVESGGGLVQAGGSLRLSCAASGLIFSKNVMGWYRQAPGKERELVAAISQRGGSTYYADSVKGRFTISRDNAKNTVYLQMNSLKPEDTAVYYCAADNTVSHEDYWGQGTQVTVSS”, for which the “polyreactivity (PSR sort gate)” value is “high polyreactivity”. As to “QVQLVESGGGLVQAGGSLRLSCAASGLIFSPYAMGWYRQAPGKERELVAAITWSGGSTYYADSVKGRFTISRDNAKNTVYLQMNSLKPEDTAVYYCNAVTTRLALYDYWGQGTQVTVSS”, the “polyreactivity (PSR sort gate)” value is given as “high polyreactivity”.
